Measurements reported in patent publication CN101228187A.

Key:
[1] = biological target: T1, FRHSVV peptide, common epitope of mutant p53 (biotinylated) (human); experiment: BIAcore (SPR), data not shown
[2] = biological target: T1, FRHSVV peptide, common epitope of …; experiment: BIAcore (SPR), biotinylated peptide on streptavidin SA chip, scFv injected, 1:1 Langmuir model

B1: A6 scFv (scFv)
scFv: VQLLESGGGLVQPGGSPRLSCAASGFTFSGYWMHWVRQAPGKGLEWVSEISGSGDSTHYGDSVKGRFTISRDNSKNTLYLQMNSLRAEDTAVYYCARGRNGSLDYWGQGTLVTVSSGSAGGGGSGGGGSGGGGSDIVLTQPPSASGTPGQRVTISCTGGRFNIGDYAVNWYQQLPGKAPKLLIYDNDRRPSGVSDRFSGSKSGTSASLAISGLRSEDEADYYCAAWDDSLDGLVFGGGTQLTV
B1 showed a Kd [1] of 0.023 µM.

B2: F2 scFv (scFv)
scFv: VQLLESGGGLVQPGGSLRLSCAASGFTFSGYWMHWVRQAPGKGLEWVSEISGSGDSTHYGDSVKGRFTISRDNSKNTLYLQMNSLRAEDTAVYYCARGRNGSLDYWGQGTLVTVSSGSAGGGGSGGGGSGGGGSDIVLTQPPSASGTPGQRVTISCSGTSSNIGADYDVHWYQQLPGKAPKLLIYDNNKRPSGVSDRFSGSKSGTSASLAISGLRSEDEADYYCAAWDSSLSSVVFGGGTQLTV
Binder B2 has a Kd [2] of 0.011 µM.
